The target of this test is avb3 and avb5 integrins on A375M cells. Put plainly: cell-based or functional assay.

B1: 5B11 (antibody, IgG2, V domains shown)
VH: QVQLVESGGGVVQPGRSVRLSCAASGFTFSSYGMHWVRQTPGKGLEWVAIIWYDGGIEYYADSVKGRFTISRDNSKNTLYLQMNSLRAEDTAVYYCARDHRYGSSWFDYWGQGTLVTVSS
VL: DIQMTQSPSSLSASVGDRVTITCRASQGINNYLAWFQQKPGKAPKSLIYAASSLQSGVPSNFSGSGSGTDFTLSISSLQPEDFATYYCQQYKSYPLTFGGGTKVEIR
With B1, the Osteopontin Adhesion (% inhibition) at 5 ug/ml, A375M cells turned out to be 13% and the Vitronectin Adhesion (% inhibition) at 5 ug/ml, A375M cells amounted to 9%.

B2: 3C5 (antibody, IgG2, V domains shown)
VH: RVQLQESGPGLVKPSQTLSLTCTVSGGSIISGGYFWTWIRQHPGKGLEWIGYIYYSGSTYYSPSLKSRVTISVDTSKNQFSLKLSSVTAADTAVYYCTRAVPAAKGYYSYYGMDVWGQGTTVTVSS
VL: DIVMTQSPLSLPVTPGEPASISCRSSQSLLHSSGYNYLDWFLQKPGQSPQLLIYLSSNRASGVPDRFSGSGSGTDFTLKISRVEAEDVGVYYCMQALQTPFTFGPGTKVDIK
In the case of B2, the Osteopontin Adhesion (% inhibition) at 5 ug/ml, A375M cells came to 3% and the Vitronectin Adhesion (% inhibition) at 5 ug/ml, A375M cells was 10%.
